{"source": "paper PMC3605045", "about": "“GH1-family 6-P-β-glucosidases from human microbiome lactic acid bacteria” (Acta Crystallographica Section D: Biological Crystallography, 2013)", "target": "6-P-β-glucosidase from Lactobacillus plantarum WCFS1 (LpPgb1) (Lactobacillus plantarum WCFS1)", "assay": "SEC; Superdex 200 16/60, 20 mM HEPES-NaOH pH 8.0, 250 mM NaCl, 2 mM DTT, proteins ~3 mg/ml, 1 ml/min, calibrated with ferritin, aldolase, conalbumin and ovalbumin; oligomeric state from the elution volume"}
{"substance": "6-P-β-glucosidase from Lactobacillus plantarum WCFS1 (LpPgb1) (enzyme)", "values": [{"measurement": "stoichiometry N", "result": 2}]}
